# Key:
# [1] = biological target: Tth Man5 β-mannosidase from Thermotoga thermarum DSM 5069 (Thermotoga thermarum DSM 5069); assay: SEC; Superdex 200 10/30 GL column on an AKTA FPLC system; MW from the calibration curve of the gel filtration column
# purified protein = substrate: O=[N+]([O-])c1ccc(O[C@@H]2O[C@H](CO)[C@@H](O)[C@H](O)[C@@H]2O)cc1; assay: purified protein; details: 50 mM imidazole-potassium buffer pH 5.5, 85°C, error given as ±0.5
Molecule,stoichiometry N [1],Km (purified protein) [mM],Vmax (purified protein) [µmol/min/mg],kcat (purified protein) [s⁻¹],kcat/Km (purified protein) [M⁻¹ s⁻¹]
Tth Man5 β-mannosidase from Thermotoga thermarum DSM 5069 (enzyme),7,,,,
Tth Man5 β-mannosidase (Pseudothermotoga thermarum DSM 5069) (protein) MDFLLGINYWSRSGAMYMWEDEYFNEEVIENEIIEMKNLGMNICRSFLFLPTFFPKPNKISEKHVERYLKFLNLCEEHGLKTLLTFIVGHMSGENFDPPFRNQRDLYMDEFMLQQQCFFVKSIVEKVRSSPAVYGYILSNEMPLYGGTGEPEKVLNWVKKLVEVIKSVDPTRPVGTGDGCWNVFGGENGFNLREISKIVDYLGPHVYLSETDEYRHSMIPEFVIRYLSQYDLPILYEEFGASSAQALDENIALYYREVLINCLINGAIGALGWCLNDFNYPNMKPYLHHPFELKFGIFKVDGARKPAAEEIVKFKNFVDSLENIQYPNAEACILVPSYYNKQYPFSFDDPKETFKHLLQATVLCAKAGFVVDLVEEENYKRWKSYKLIILPSERKYLATTWENLHKYVQAGGNLYISYYWGKYDFHQGIWSQNLESLIGCKLNLRYGLTSSLPSKVKLEYGGLTWKLNVEKCNEWEKSYAPIVSILETAESIELGQSDLQLVKNKVGSGKVFFINFPLEHILSVNEKINLSDLSHLIYRCIAKQASLNLCYCDNQRVRVRKIKSGRKTLYLIQNIAWDKEQVQTIFDNSSTYHVQIELDPKEYKLLNF,,4.36 ± 0.05,227,1920,441000
